This note sets out measurements from the supplement of paper PMC7877785.

± gives the uncertainty stated by the source.

A short description of the series: self-splicing fitness, log relative to wild type (ln ratio); higher = more splicing; Tetrahymena group I intron in knt gene, E. coli kanamycin selection, DiMSum; sequences stand for … in CUCUCU…GGAGGGAAAAGUUAUCAGGCAUGCACCUGGUAGCUAGUCUUUAAACCAAUAGAUUGCAUCGGUUUAAAAGGCAAGACCGUCAAAUUGCGGGAAAGGGGUCAACAGCCGUUCAGUACCAAGUCUCAGGGGAAACUUUGAGAUGGCCUUGCAAAGGGUAUGGUAAUAAGCUGACGGACAUGGUCCUAACCACGCAGCCAAGUCCUAAGUCAACAGAUCUUCUGUUGAUAUGGAUGCAGUUCACAGACUAAAUGUCGGUCGGGGAAGAUGUAUUCUUCUCAUAAGAUAUAGUCGGACCUCUCCUUAAUGGGAGCUAGCGGAUGAAGUGAUGCAACACUGGAGCCGCUGGGAACUAAUUUGUAUGCGAAAGUAUAUUGAUUAGUUUUGGAGUACUCGUGGUCG
A digest of the protocol: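 Pooled colonies went to amplicon sequencing on an Illumina HiSeq 2500 after six replicate transformations. The plates were LB agar with 100 μg/mL carbenicillin, 50 μM IPTG and 0.2% rhamnose, with or without 25 μg/mL kanamycin, incubated overnight at 37°C or 30°C. The E. coli BL21(DE3) library had all eight P1ex-region intron nucleotides randomised, the intron placed in the knt kanamycin-resistance gene on pET-22b(+). DiMSum fitness is the error-weighted combination of replicate fold changes, kanamycin against none, normalised to wild type.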

Consider GUAUAGCAAUAUUACGAUGU, for which the “self-splicing fitness (ln)” value (30 °C) is -1.07 ± 0.12 and the “self-splicing fitness (ln)” value (37 °C) is -0.00633 ± 0.17. Turning to GUAUAGCAAUAUUACGAUUU, the “self-splicing fitness (ln)” value reads like this: (30 °C) -1.63 ± 0.11; (37 °C) 0.247 ± 0.13.

For the sequence GUAUAGCAAUAUUACGCAAA, the “self-splicing fitness (ln)” value was -3.07 ± 0.29 (30 °C) and -1.7 ± 0.25 (37 °C). Turning to GUAUAGCAAUAUUACGCACU, the “self-splicing fitness (ln)” value reads like this: (30 °C) -1.9 ± 0.16; (37 °C) -0.384 ± 0.14. Consider GUAUAGCAAUAUUACGCCCC, for which the “self-splicing fitness (ln)” value runs as follows: (30 °C) -1.21 ± 0.2; (37 °C) -0.594 ± 0.29. The corresponding values for GUAUAGCAAUAUUACGCCCU are -0.766 ± 0.2 and 0.0529 ± 0.26.

With GUAUAGCAAUAUUACGCUCU, the “self-splicing fitness (ln)” value by setting is: (30 °C) -1.76 ± 0.13; (37 °C) -1.23 ± 0.15. Consider GUAUAGCAAUAUUACGGAAG, for which the “self-splicing fitness (ln)” value (37 °C) was -1.92 ± 0.27. Consider GUAUAGCAAUAUUACGGCGC, for which the “self-splicing fitness (ln)” value reads like this: (30 °C) -0.053 ± 0.11; (37 °C) -0.157 ± 0.12. In the same order, the values of GUAUAGCAAUAUUACGGCGU are -0.696 ± 0.13 and 0.267 ± 0.19. The corresponding values for GUAUAGCAAUAUUACGGCUG are -1.2 ± 0.079 and -0.532 ± 0.097. The corresponding values for GUAUAGCAAUAUUACGUAUG are -3.06 ± 0.15 and -1.93 ± 0.15.

In the case of GUAUAGCAAUAUUACGUCAC, the “self-splicing fitness (ln)” value is, setting by setting: (30 °C) -3 ± 0.29; (37 °C) -1.7 ± 0.26.

For the sequence GUAUAGCAAUAUUACGUCUA, the “self-splicing fitness (ln)” value (30 °C) was -0.881 ± 0.17 and the “self-splicing fitness (ln)” value (37 °C) is -1.01 ± 0.18. With GUAUAGCAAUAUUACGUGGA, the “self-splicing fitness (ln)” value was -3.62 ± 0.28 (30 °C) and -2.23 ± 0.18 (37 °C). Turning to GUAUAGCAAUAUUACGUUAG, the “self-splicing fitness (ln)” value is, setting by setting: (30 °C) -2.87 ± 0.21; (37 °C) -1.07 ± 0.22. Consider GUAUAGCAAUAUUACGUUGC, for which the “self-splicing fitness (ln)” value (30 °C) is -2.83 ± 0.26. With GUCAAGCAAUAUUACGAACU, the “self-splicing fitness (ln)” value runs as follows: (30 °C) -2.42 ± 0.11; (37 °C) -1.38 ± 0.12. Consider GUCAAGCAAUAUUACGAAGC, for which the “self-splicing fitness (ln)” value was -3.84 ± 0.27 (30 °C) and -2.54 ± 0.2 (37 °C). As to GUCAAGCAAUAUUACGACAG, the “self-splicing fitness (ln)” value runs as follows: (30 °C) -4.39 ± 0.33; (37 °C) -2.93 ± 0.33.

As for GUCAAGCAAUAUUACGACAU, the “self-splicing fitness (ln)” value is, setting by setting: (30 °C) -1.673 ± 0.012; (37 °C) -0.579 ± 0.032.

For GUCAAGCAAUAUUACGAGAA, the “self-splicing fitness (ln)” value is -3.59 ± 0.36 (30 °C) and -1.83 ± 0.2 (37 °C). As to GUCAAGCAAUAUUACGAGCU, the “self-splicing fitness (ln)” value (30 °C) was -3.49 ± 0.17 and the “self-splicing fitness (ln)” value (37 °C) is -1.85 ± 0.15. Consider GUCAAGCAAUAUUACGAUAC, for which the “self-splicing fitness (ln)” value is, setting by setting: (30 °C) -3.1 ± 0.14; (37 °C) -1.16 ± 0.09. In the same order, the values of GUCAAGCAAUAUUACGAUAU are -1.28 ± 0.07 and -0.525 ± 0.078. As for GUCAAGCAAUAUUACGAUGG, the “self-splicing fitness (ln)” value reads like this: (30 °C) -4.88 ± 0.38; (37 °C) -3.68 ± 0.27.

GUCAAGCAAUAUUACGCAUA: the “self-splicing fitness (ln)” value by setting is: (30 °C) -1.58 ± 0.063; (37 °C) -0.367 ± 0.06. As to GUCAAGCAAUAUUACGCCUC, the “self-splicing fitness (ln)” value runs as follows: (30 °C) -1.25 ± 0.25; (37 °C) 0.644 ± 0.41. Turning to GUCAAGCAAUAUUACGCUUA, the “self-splicing fitness (ln)” value was -2.07 ± 0.14 (30 °C) and -0.67 ± 0.12 (37 °C). For the sequence GUCAAGCAAUAUUACGGAGA, the “self-splicing fitness (ln)” value is -3.61 ± 0.26 (30 °C) and -3.41 ± 0.39 (37 °C). For the sequence GUCAAGCAAUAUUACGGAUC, the “self-splicing fitness (ln)” value was -2.77 ± 0.1 (30 °C) and -1.09 ± 0.093 (37 °C).

Turning to GUCAAGCAAUAUUACGGCAC, the “self-splicing fitness (ln)” value is -1.35 ± 0.16 (30 °C) and 0.15 ± 0.22 (37 °C). As to GUCAAGCAAUAUUACGUAUC, the “self-splicing fitness (ln)” value reads like this: (30 °C) -2.71 ± 0.2; (37 °C) -0.284 ± 0.16. Turning to GUCAAGCAAUAUUACGUCUG, the “self-splicing fitness (ln)” value (30 °C) was -3.64 ± 0.28 and the “self-splicing fitness (ln)” value (37 °C) was -0.0416 ± 0.085. In the same order, the values of GUCCAGCAAUAUUACGAACG are -1.52 ± 0.13 and -0.855 ± 0.16. For the sequence GUCCAGCAAUAUUACGAACU, the “self-splicing fitness (ln)” value is, setting by setting: (30 °C) -1.37 ± 0.074; (37 °C) -0.292 ± 0.081.

Consider GUCCAGCAAUAUUACGACUA, for which the “self-splicing fitness (ln)” value was -1.52 ± 0.11 (30 °C) and -0.869 ± 0.11 (37 °C). As for GUCCAGCAAUAUUACGACUG, the “self-splicing fitness (ln)” value (30 °C) is -4.63 ± 0.39 and the “self-splicing fitness (ln)” value (37 °C) was -1.86 ± 0.22.
